Data from publication PMC12323374.

Legend:
[1] = target: SARS-CoV-2 nucleocapsid (N) protein, full length (419 amino acids) (SARS-CoV-2) (UniProt P0DTC9); experiment: SEC-RALS
[2] = test system: Nsp3 Y domain (SARS-CoV-2); experiment: EMSA
[3] = test system: Nsp3 Ubl1 (SARS-CoV-2 (MN908947.3?)); experiment: EMSA
Nsp3 NAB (SARS-CoV-2) = experiment: EMSA
[4] = test system: Nsp3 Ubl1 (in N complex);N protein (in Ubl1 complex) (SARS-CoV-2;SARS-CoV-2); experiment: EMSA
[5] = test system: Nucleocapsid (N) protein (SARS-CoV-2); experiment: EMSA
Nsp3 ADRP (SARS-CoV-2) = experiment: EMSA
Nsp3 HSUD (SARS-CoV-2) = experiment: EMSA
[6] = target: SARS-CoV-2 Nsp3 ubiquitin-like 1 (Ubl1) domain, residues 1-111 (SARS-CoV-2); experiment: crystal structure

In the case of “His6-Nsp3 Ubl1 domain (residues 1-111) (domain or fragment)”, the stoichiometry N (Ubl1 per N (4:4)) [1] is reported as 1.

5' UTR (1-245) showed a Kd [2] of 0.7 µM, a Kd [3] of 31 µM and a Kd (Nsp3 NAB (SARS-CoV-2)) of 204 µM. The Kd [4] was 0.007 µM, the Kd [5] was 0.79 µM and the Kd (Nsp3 ADRP (SARS-CoV-2)) was 198 µM. The Kd (Nsp3 HSUD (SARS-CoV-2)) was 41 µM.

With “SARS-CoV-2 Nsp3 ubiquitin-like 1 (Ubl1) domain, residues 1-111 (domain or fragment)” the stoichiometry N [6] was 2.
